The source of these data is patent publication US20220177579A1 (published 2022).

Residue numbers refer to the chain shown, from its start.

The term EC50 denotes the concentration at which the effect is half-maximal. A high value points to a less potent agent.

For this assay, the target named is T1, human CD19 on CD19(+) NALM6 acute lymphoid leukemia cells (UniProt P15391 20-556).
T1 chain: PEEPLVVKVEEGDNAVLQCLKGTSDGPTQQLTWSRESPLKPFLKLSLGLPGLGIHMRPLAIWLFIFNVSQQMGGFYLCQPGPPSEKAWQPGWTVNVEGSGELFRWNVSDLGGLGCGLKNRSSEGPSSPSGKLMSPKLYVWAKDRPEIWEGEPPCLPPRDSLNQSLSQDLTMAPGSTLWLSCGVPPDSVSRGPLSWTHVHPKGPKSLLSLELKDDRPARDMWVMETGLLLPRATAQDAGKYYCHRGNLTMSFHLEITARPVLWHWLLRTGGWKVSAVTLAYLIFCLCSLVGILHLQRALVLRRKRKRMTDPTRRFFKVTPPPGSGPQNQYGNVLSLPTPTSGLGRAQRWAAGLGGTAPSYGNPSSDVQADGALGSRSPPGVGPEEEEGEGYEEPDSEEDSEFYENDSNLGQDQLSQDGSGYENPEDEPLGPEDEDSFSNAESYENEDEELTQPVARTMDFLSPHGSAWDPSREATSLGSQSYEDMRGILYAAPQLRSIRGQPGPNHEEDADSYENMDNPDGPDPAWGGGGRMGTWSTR
Put plainly: FACS. (In flow cytometry, cells or beads pass a laser one at a time.)

B1: L3+H8b (antibody, V domains shown)
VH: QVQLQESGPGLVKPSETLSVTCTVSGVSLPDYGVSWIRQPPGKGLEWIGVIWGSETTYYNPSLKSRLTISKDTSKNQFSLKLSSVTAADTAVYYCAKHYYYGGSYAMDYWGQGTSVTVSS
VL: DIQMTQSTSSLSASVGDRVTITCRASQDISKYLNWYQQKPGKAVKLLIYHTSRLHSGVPSRFSGSGSGTDYTFTISSLQPEDIATYYCQQGNTLPYTFGGGTKLEIT
Molecule B1 had an EC50 of 0.19 µg/mL.

B2: L2+H3 (antibody, V domains shown)
VH: B1 VH with V20L, Y58N, K71V, L82M
VL: B1 VL with T8P, R24Q, F73L, Y87F
As to B2, the EC50 turned out to be 0.41 µg/mL.

B3: L3+H6b (antibody, V domains shown)
VH: B1 VH with V20L, I48L, L67V, K71V, T73N
VL: B1 VL
As for B3, the EC50 was determined as 0.13 µg/mL. Against the preceding molecule, the EC50 is about 3.2-fold lower.

B4: L3+H5b (antibody, V domains shown)
VH: B1 VH with V20L, Y58N, L67V, N76S, F78V
VL: B1 VL
Turning to B4, the EC50 was 0.28 µg/mL. Against the preceding molecule, the EC50 is about 2.2-fold higher.

B5: L3+H3 (antibody, V domains shown)
VH: B1 VH with V20L, Y58N, K71V, L82M
VL: B1 VL
Take B5: the response was half-maximal at 0.64 µg/mL (EC50). Against the preceding molecule, the EC50 is about 2.3-fold higher.
